Substitutions are numbered along the chain they refer to.
Key:
[1] = target: T1, Human EphA2 (ephrin receptor A2) on cells (human, UniProt P29317 25-976); experiment: cell-based or functional assay
[2] = target: T1, Human EphA2 (ephrin receptor A2) on …; experiment: cell-based or functional assay; remark: listed apart in the source
[3] = target: T2, hEphA2-FN2-(437-534) - Fc (human, UniProt P29317 437-534); experiment: SPR Biacore, 25 C; hEphA2-Fc fusion captured by anti-human Fc, Fab analyte
T2 construct: also called FN2 domain Fc fusion; not shown: human Fc, C-terminal to the EphA2 part
T2 sequence (P29317 437-534): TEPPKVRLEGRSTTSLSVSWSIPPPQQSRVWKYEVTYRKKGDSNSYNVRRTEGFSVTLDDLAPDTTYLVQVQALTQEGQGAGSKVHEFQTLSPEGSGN
Description: (§1) The hEphA2-Fc fusions were captured with an anti-human Fe immobilized to a CM5 chip.
(§2) Biacore® assays were conducted at 25° C. using HBS-EP+ buffer (0.01 M HEPES pH 7.4, 0.15 M NaCl, 3 mM EDTA, 0.005% v/v Surfactant P20). Data was double-reference subtracted and data was analyzed using 1:1 Langmuir binding model and steady-state model in Biacore Evaluation software.
(§3) Binding to hEphA2-ECD-Fc tested using 100, 300, and 900 nM analyte.

hEphA2-clv432-534-Fc = target: T3, hEphA2-clv432-534-Fc (human, UniProt P29317 432-534); experiment: as above
T3 construct: Recombinant fragment representing a cleavage form; not shown: human Fc, C-terminal to the EphA2 part
T3 sequence (P29317 432-534): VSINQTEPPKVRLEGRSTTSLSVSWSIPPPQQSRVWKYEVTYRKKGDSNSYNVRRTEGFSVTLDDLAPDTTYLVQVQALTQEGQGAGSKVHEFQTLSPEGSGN
Description: as §1, §2, §3

hEphA2-clv395-534-Fc = target: T4, hEphA2-clv395-534-Fc (human, UniProt P29317 395-534); experiment: as above
T4 construct: Recombinant fragment representing a cleavage form; not shown: human Fc, C-terminal to the EphA2 part
T4 sequence (P29317 395-534): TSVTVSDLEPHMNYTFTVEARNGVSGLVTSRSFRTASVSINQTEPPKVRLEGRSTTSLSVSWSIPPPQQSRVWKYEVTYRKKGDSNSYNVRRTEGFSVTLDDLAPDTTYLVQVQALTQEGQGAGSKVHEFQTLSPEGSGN
Description: as §1, §2, §3

hEphA2-clv385-534-Fc = target: T5, hEphA2-clv385-534-Fc (human, UniProt P29317 385-534); experiment: as above
T5 construct: Recombinant fragment representing a cleavage form; not shown: human Fc, C-terminal to the EphA2 part
T5 sequence (P29317 385-534): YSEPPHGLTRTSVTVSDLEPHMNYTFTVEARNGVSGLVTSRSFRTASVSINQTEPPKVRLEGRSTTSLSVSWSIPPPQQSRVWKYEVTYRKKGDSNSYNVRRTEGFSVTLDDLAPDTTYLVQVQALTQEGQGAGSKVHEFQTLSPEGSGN
Description: as §1, §2, §3

[4] = target: T6, hEphA2-FN12-(327-534) - Fc (human, UniProt P29317 327-534); experiment: as above
T6 construct: also called FN1-FN2 domains Fc fusion; not shown: human Fc, C-terminal to the EphA2 part
T6 sequence (P29317 327-534): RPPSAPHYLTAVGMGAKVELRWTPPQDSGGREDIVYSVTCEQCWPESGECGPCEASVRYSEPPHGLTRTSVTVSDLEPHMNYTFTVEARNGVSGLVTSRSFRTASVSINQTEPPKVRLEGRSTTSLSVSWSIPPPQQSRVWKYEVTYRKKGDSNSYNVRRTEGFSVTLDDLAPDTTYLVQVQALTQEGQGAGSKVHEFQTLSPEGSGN
Description: as §1, §2, §3

hEphA2-clv435-534-Fc = target: T7, hEphA2-clv435-534-Fc (human, UniProt P29317 435-534); experiment: as above
T7 construct: Recombinant fragment representing a cleavage form; not shown: human Fc, C-terminal to the EphA2 part
T7 sequence (P29317 435-534): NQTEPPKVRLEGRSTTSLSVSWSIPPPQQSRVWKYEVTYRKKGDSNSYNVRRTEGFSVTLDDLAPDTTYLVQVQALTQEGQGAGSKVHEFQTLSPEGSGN
Description: as §1, §2, §3

[5] = target: T1, Human EphA2 (ephrin receptor A2) on …; experiment: flow cytometry on A549 cells
Description: Surface binding of the antibodies to in vitro grown cell lines was assessed by flow cytometry. Tumor cells were detached from their culture plate using Versene and counted. Cells were staining in BSA-containing buffer with primary antibody for 30 minutes at 4° C. with shaking. Following, cells were washed and stained with secondary PE-labeled antibody for 30 minutes at 4° C. with shaking. Before analysis on an Intellicyt iQue3 scanner, cells were counterstained with DAPI. MedFI values from live, single cells was expressed as fold over isotype control.

[6] = target: T1, Human EphA2 (ephrin receptor A2) on …; experiment: cell-based or functional assay; remark: listed apart in the source
[7] = target: T1, Human EphA2 (ephrin receptor A2) on …; experiment: cell-based or functional assay; remark: listed apart in the source
[8] = target: human 4-1BB on reporter cells (human, UniProt Q07011 24-255); experiment: cell-based or functional assay
human 4-1BB on reporter cells, sequence (Q07011 24-255): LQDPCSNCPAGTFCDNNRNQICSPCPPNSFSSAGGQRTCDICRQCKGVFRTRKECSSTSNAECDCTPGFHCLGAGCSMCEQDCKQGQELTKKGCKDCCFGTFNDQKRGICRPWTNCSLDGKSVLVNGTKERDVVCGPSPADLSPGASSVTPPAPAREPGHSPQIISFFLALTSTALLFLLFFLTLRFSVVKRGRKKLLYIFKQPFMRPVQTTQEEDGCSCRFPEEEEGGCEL

T1 sequence (P29317 25-976): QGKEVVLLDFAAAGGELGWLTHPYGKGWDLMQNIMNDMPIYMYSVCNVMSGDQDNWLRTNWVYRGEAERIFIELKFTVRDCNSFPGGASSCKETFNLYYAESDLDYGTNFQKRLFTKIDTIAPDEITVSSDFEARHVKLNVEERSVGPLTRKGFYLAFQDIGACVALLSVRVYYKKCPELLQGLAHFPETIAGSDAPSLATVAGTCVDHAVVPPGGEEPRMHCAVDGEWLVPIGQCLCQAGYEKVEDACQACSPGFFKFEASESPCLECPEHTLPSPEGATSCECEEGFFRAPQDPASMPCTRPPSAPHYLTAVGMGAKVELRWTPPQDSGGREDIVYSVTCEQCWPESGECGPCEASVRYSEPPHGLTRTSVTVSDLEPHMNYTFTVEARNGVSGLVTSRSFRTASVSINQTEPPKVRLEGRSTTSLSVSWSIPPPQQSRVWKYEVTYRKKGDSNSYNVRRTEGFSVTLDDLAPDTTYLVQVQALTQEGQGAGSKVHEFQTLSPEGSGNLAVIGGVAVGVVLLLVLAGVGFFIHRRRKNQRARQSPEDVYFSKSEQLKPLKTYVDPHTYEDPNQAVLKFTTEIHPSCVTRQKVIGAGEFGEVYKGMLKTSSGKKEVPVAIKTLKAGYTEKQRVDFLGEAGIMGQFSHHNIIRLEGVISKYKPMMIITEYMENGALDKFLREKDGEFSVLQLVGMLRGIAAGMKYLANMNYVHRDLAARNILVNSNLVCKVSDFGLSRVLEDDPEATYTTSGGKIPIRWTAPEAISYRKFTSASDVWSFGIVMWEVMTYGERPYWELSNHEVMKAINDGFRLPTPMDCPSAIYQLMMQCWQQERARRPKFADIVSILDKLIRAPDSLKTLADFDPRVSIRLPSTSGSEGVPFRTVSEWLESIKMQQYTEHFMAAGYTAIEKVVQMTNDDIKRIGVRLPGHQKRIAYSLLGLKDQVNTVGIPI

B1: AB-010699 (antibody, V domains shown)
VH: QVQLQQWGAGLLKPSETLSLTCAVYGGSFSGYYWSWIRQPPGKGLEWIGEINHRGSINYNNYNPSLKSRVTISVDTSKNQFSLKLSSVTAADTAVYYCAKPLRPHCINGVCYSGDAFDIWGQGTMVTVAS
VL: SYVLTQPPSVSVAPGQTARITCGGNNIGYKNVHWYQQKPGQAPVLVVYDDSDRPSGIPERFSGSNSGNTATLTISRVEAGDEADYYCQVWDHSSDHVVFGGGTKLTVL
- ADCC - EC50 (nM), Trial 1, A549 [1]: ~0.014 nM
- ADCC - EC50 (nM), Trial 2, A549 [1]: 0.0058 nM
- EC50 (read off the curve), EphA2 pY588 phosphorylation, soluble agonist titration [2]: ~3e-09 M

B2: AB-010699 human Fab fragment (Fab, V domains shown)
VH: B1 VH
VL: B1 VL
notes: Human Fab format
- Kd [3]: 8.6 nM
- koff [3]: 0.085 s⁻¹
- kon [3]: 1e+07 M⁻¹ s⁻¹
- Kd (hEphA2-clv432-534-Fc): 9.6 nM
- koff (hEphA2-clv432-534-Fc): 0.075 s⁻¹
- kon (hEphA2-clv432-534-Fc): 7.78e+06 M⁻¹ s⁻¹
- Kd (hEphA2-clv395-534-Fc): 12 nM
- koff (hEphA2-clv395-534-Fc): 0.07 s⁻¹
- kon (hEphA2-clv395-534-Fc): 5.72e+06 M⁻¹ s⁻¹
- Kd (hEphA2-clv385-534-Fc): 12 nM
- koff (hEphA2-clv385-534-Fc): 0.072 s⁻¹
- kon (hEphA2-clv385-534-Fc): 6.05e+06 M⁻¹ s⁻¹
- Kd [4]: 8.6 nM
- koff [4]: 0.043 s⁻¹
- kon [4]: 5e+06 M⁻¹ s⁻¹
- Kd (hEphA2-clv435-534-Fc): 9.3 nM
- koff (hEphA2-clv435-534-Fc): 0.078 s⁻¹
- kon (hEphA2-clv435-534-Fc): 8.42e+06 M⁻¹ s⁻¹

B3: AB-009815 (antibody, mouse IgG2a, V domains shown)
VH: B1 VH with G31D, I51V, S86T, I107T
VL: B1 VL with Y29S, R60Q, H92S, V97L
- EC50 [5]: 5.5 nM
- Flow Delta [5]: 745000
- ADCC Delta, A549 cells [6]: 59.8
- ADCC EC50 (nM), A549 cells [6]: 10.4 nM
- EC50 (read off the curve), ADC activity [7]: ~2 nM

B4: Urelumab (AB-009811) (antibody, V domains shown)
VH: QVQLQQWGAGLLKPSETLSLTCAVYGGSFSGYYWSWIRQSPEKGLEWIGEINHGGYVTYNPSLESRVTISVDTSKNQFSLKLSSVTAADTAVYYCARDYGPGNYDWYFDLWGRGTLVTVSS
VL: EIVLTQSPATLSLSPGERATLSCRASQSVSSYLAWYQQKPGQAPRLLIYDASNRATGIPARFSGSGSGTDFTLTISSLEPEDFAVYYCQQRSNWPPALTFGGGTKVEIK
- EC50 (read off the curve), 4-1BB reporter activation with PC3 [8]: ~0.3 nM

Source: patent US20250276077A1 (IMMUNOME, published 2025)
